{"source": "patent US20210395344A1", "key": {"[1]": {"biological_target": "SARS-CoV-2 Spike Glycoprotein S1 (subunit 1) (SARS-CoV-2) (UniProt P0DTC2)", "experiment": "epitope binning; competitor Abcam CR3022"}, "[2]": {"biological_target": "SARS-CoV-2 Spike Glycoprotein S1 (subunit 1) (SARS-CoV-2) (UniProt P0DTC2)", "experiment": "epitope binning; competitor 1-35"}, "[3]": {"biological_target": "SARS-CoV-2 Spike Glycoprotein S1 (subunit 1) (SARS-CoV-2) (UniProt P0DTC2)", "experiment": "epitope binning; competitor 1-32"}, "[4]": {"biological_target": "SARS-CoV-2 Spike Glycoprotein S1 (subunit 1) (SARS-CoV-2) (UniProt P0DTC2)", "experiment": "epitope binning; competitor 2-5"}, "[5]": {"biological_target": "SARS-CoV-2 Spike Glycoprotein S1 (subunit 1) (SARS-CoV-2) (UniProt P0DTC2)", "experiment": "epitope binning; competitor Acro mAb"}, "[6]": {"biological_target": "SARS-CoV-2 Spike Glycoprotein S1 (subunit 1) (SARS-CoV-2) (UniProt P0DTC2)", "experiment": "epitope binning; competitor 2-11"}, "[7]": {"biological_target": "SARS-CoV-2 Spike Glycoprotein S1 (subunit 1) (SARS-CoV-2) (UniProt P0DTC2)", "experiment": "epitope binning; competitor 2-2"}, "[8]": {"biological_target": "SARS-CoV-2 Spike Glycoprotein S1 (subunit 1) (SARS-CoV-2) (UniProt P0DTC2)", "experiment": "epitope binning; competitor 2-8"}, "[9]": {"biological_target": "SARS-CoV-2 Spike Glycoprotein S1 (subunit 1) (SARS-CoV-2) (UniProt P0DTC2)", "experiment": "epitope binning; competitor 1-16"}, "[10]": {"biological_target": "SARS-CoV-2 Spike Glycoprotein S1 (subunit 1) (SARS-CoV-2) (UniProt P0DTC2)", "experiment": "epitope binning; competitor 2-6"}}, "data": [{"substance": "Abcam CR3022 (antibody)", "values": [{"measurement": "epitope binning score", "setting": "[1]", "value": 0}, {"measurement": "epitope binning score", "setting": "[2]", "value": 2}, {"measurement": "epitope binning score", "setting": "[3]", "value": 1}, {"measurement": "epitope binning score", "setting": "[4]", "value": 0}, {"measurement": "epitope binning score", "setting": "[5]", "value": 2}, {"measurement": "epitope binning score", "setting": "[6]", "value": 1}, {"measurement": "epitope binning score", "setting": "[7]", "value": 0}, {"measurement": "epitope binning score", "setting": "[8]", "value": 0}, {"measurement": "epitope binning score", "setting": "[9]", "value": 2}, {"measurement": "epitope binning score", "setting": "[10]", "value": 2}]}]}
